Protein stability index data for 28 sequences are collected here from the supplement of paper PMC10724198.

± gives the standard deviation of the averaged measurements.

The data set has as its system Saccharomyces cerevisiae. Briefly: protein stability index of tFT-peptide fusion (C-terminal peptide) (PSI (0-1 scale)); higher = more stable (slower turnover). The settings on record: temperature: 30 C. Here is the method:
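MPS profiling in S. cerevisiae of the yeast C-terminome library: the last 12 aa of each annotated ORF are fused to the C-terminus of a sfGFP-mCherry timer, after a GGGS linker. Cells are FACS-sorted into 8 mCherry/sfGFP bins and deep-sequenced. PSI runs from 0 (unstable) to 1 (stable); wild type and das1Δ backgrounds, two technical replicates each.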

[1] abbreviates: genetic background: das1 deletion.

Turning to FSTWDIADKQEA [PMT2 C-terminal 12 aa], the protein stability index by setting is: under setting [1], 0.717 ± 0.016; (genetic background: wild type) 0.732 ± 0.023.
For FSVEQREKPSNN [GRX6 C-terminal 12 aa], in that order: 0.69394 ± 0.0003 and 0.69949 ± 0.00033.
With FTPSNQSHGNFY [TEC1 C-terminal 12 aa], the protein stability index runs as follows: under setting [1], 0.718 ± 0.015; (genetic background: wild type) 0.662 ± 0.007.
For FVYKGVRKPKRN [SEN15 C-terminal 12 aa], in that order: 0.752 ± 0.033 and 0.778 ± 0.1.
Sequence FYHVFDEPRYYL [CWH43 C-terminal 12 aa] showed a protein stability index under setting [1] of 0.7524 ± 0.0054 and a protein stability index (genetic background: wild type) of 0.7087 ± 0.0018.
For GAGALAAAAMLL [CWP2 C-terminal 12 aa], the protein stability index under setting [1] turned out to be 0.711 ± 0.032 and the protein stability index (genetic background: wild type) was 0.665 ± 0.027.
As for GASAEDNTHPDE [NAB6 C-terminal 12 aa], the protein stability index is, setting by setting: under setting [1], 0.694 ± 0.011; (genetic background: wild type) 0.681 ± 0.046.
On to GDENFVILEFEC [OAZ1 C-terminal 12 aa], for which the protein stability index reads like this: under setting [1], 0.7 ± 0.019; (genetic background: wild type) 0.732 ± 0.036.
Take GDIIKLRESVNA [YJL215C C-terminal 12 aa]: the protein stability index under setting [1] is 0.6729 ± 0.0061 and the protein stability index (genetic background: wild type) worked out at 0.73 ± 0.05.
On to GDLVNAIMSLSK [EGD2 C-terminal 12 aa], for which the protein stability index worked out at 0.696 ± 0.013 under setting [1] and 0.696 ± 0.025 (genetic background: wild type).
With GEASTGNRLSFK [BNI1 C-terminal 12 aa], the protein stability index stood at 0.719 ± 0.013 under setting [1] and 0.72 ± 0.022 (genetic background: wild type).
Regarding GFLGIRWGPRKD [TIM21 C-terminal 12 aa], the protein stability index runs as follows: under setting [1], 0.7247 ± 0.00099; (genetic background: wild type) 0.6861 ± 0.006.
For GFQATVGKRRRM [SUI3 C-terminal 12 aa], in that order: 0.699 ± 0.019 and 0.703 ± 0.0081.
For GGIRKISGSIKK [CDC14 C-terminal 12 aa], in that order: 0.71 ± 0.01 and 0.667 ± 0.037.
Take GGSRGGFRGGRR [GAR1 C-terminal 12 aa]: the protein stability index amounted to 0.685 ± 0.041 under setting [1] and 0.707 ± 0.041 (genetic background: wild type).
For the sequence GHLSSSRRRLRT [SUV3 C-terminal 12 aa], the protein stability index reads like this: under setting [1], 0.7217 ± 0.0043; (genetic background: wild type) 0.7 ± 0.034.
For GIDVHYVFRTYH [CIN10 C-terminal 12 aa], in that order: 0.704 ± 0.012 and 0.6311 ± 0.0031.
In the case of GKTTYSEVWAGY [VVS1 C-terminal 12 aa], the protein stability index reads like this: under setting [1], 0.746 ± 0.04; (genetic background: wild type) 0.741 ± 0.013.
Consider GLFPSNYVSLGN [ABP1 C-terminal 12 aa], for which the protein stability index worked out at 0.689 ± 0.0081 under setting [1] and 0.721 ± 0.01 (genetic background: wild type).
For GLLLPLCHRKRS [YOR012W C-terminal 12 aa], in that order: 0.706 ± 0.015 and 0.411 ± 0.039.
For the sequence GLRVANPDSDPE [YDR239C C-terminal 12 aa], the protein stability index runs as follows: under setting [1], 0.7 ± 0.0077; (genetic background: wild type) 0.721 ± 0.081.
For GLSLSFSKKLDL [DSN1 C-terminal 12 aa], in that order: 0.685 ± 0.023 and 0.671 ± 0.026.
“GSTSCPLLRLSR [YHR073C-B C-terminal 12 aa]”: the protein stability index runs as follows: under setting [1], 0.707 ± 0.021; (genetic background: wild type) 0.685 ± 0.013.
As to GYAKTWSIASAN [CTT1 C-terminal 12 aa], the protein stability index runs as follows: under setting [1], 0.714 ± 0.011; (genetic background: wild type) 0.674 ± 0.028.
Take GYCKVHPVSDSK [ASI1 C-terminal 12 aa]: the protein stability index turned out to be 0.706 ± 0.0072 under setting [1] and 0.656 ± 0.036 (genetic background: wild type).
For HAGTRPVLLLQK [YKL053W C-terminal 12 aa], in that order: 0.694 ± 0.016 and 0.674 ± 0.04.
On to HCTVVLPSILKR [YHR217C C-terminal 12 aa], for which the protein stability index stood at 0.714 ± 0.024 under setting [1] and 0.705 ± 0.0033 (genetic background: wild type).
For the sequence HDHHNDVPEAPV [RAD1 C-terminal 12 aa], the protein stability index runs as follows: under setting [1], 0.6941 ± 0.0012; (genetic background: wild type) 0.692 ± 0.022.
